Measured values reported in patent US20180172709A1.

Biological target: recombinant Syrian golden hamster proteinase K-sensitive prion protein (residues 23-231) (Syrian golden hamster) (UniProt Q60468)
Assay: cell-based or functional assay

## hamster proteinase K resistant prion protein (263K scrapie strain), purified from hamster brains or (from UniProt P04273 23-231)
  amount of PrP^Sc seed detected, 4-hour QUIC at 65° C.: 100 fg
  amount of PrP^Sc seed detected, 8-hour QUIC at 55° C.: 10 fg
  amount of PrP^Sc seed detected, triplicate 18-hour QUIC at 55° C.: 1 fg
  amount of PrP^Sc seed frequently positive, first 48-hour QUIC round: 25 to 50 ag
  amount of PrP^Sc seed positive in one sample, second serial QUIC round: 10 ag
